Article PMC6053351 (2017)

How the values were obtained:
Experiment in all cases: ITC
[1] = target: RBBP4, full-length, wild type (UniProt Q09028 1-425)
RBBP4 Glu231Ala = RBBP4 Glu231Ala (UniProt Q09028 1-425, Glu231Ala)
[2] = target: RBBP4 Glu126Ala/Asn128Ala/Glu179Ala (UniProt Q09028 1-425, Glu126Ala | Asn128Ala | Glu179Ala)
Chain of RBBP4 Glu126Ala/Asn128Ala/Glu179Ala (Q09028 whole entry E126A/N128A/E179A): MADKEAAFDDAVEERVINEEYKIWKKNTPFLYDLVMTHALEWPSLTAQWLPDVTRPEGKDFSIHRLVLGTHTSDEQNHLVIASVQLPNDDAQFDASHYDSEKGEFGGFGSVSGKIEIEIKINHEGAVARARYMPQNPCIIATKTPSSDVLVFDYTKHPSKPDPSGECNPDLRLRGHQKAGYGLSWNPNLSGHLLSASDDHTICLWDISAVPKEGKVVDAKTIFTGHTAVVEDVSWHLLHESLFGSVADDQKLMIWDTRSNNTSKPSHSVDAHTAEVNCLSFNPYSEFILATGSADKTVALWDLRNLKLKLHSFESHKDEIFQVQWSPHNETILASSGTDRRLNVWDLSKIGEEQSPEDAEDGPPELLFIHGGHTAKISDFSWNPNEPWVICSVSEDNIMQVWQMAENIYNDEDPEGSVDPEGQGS

Chain of RBBP4, full-length, wild type (Q09028 whole entry): as the sequence (Q09028 whole entry E126A/N128A/E179A) above, with A126E, A128N, A179E counted along it
Chain of RBBP4 Glu231Ala (Q09028 whole entry E231A): as the sequence (Q09028 whole entry E126A/N128A/E179A) above, with A126E, A128N, A179E, E231A counted along it

B1: AEBP2_(379–390) peptide with mutations Arg380Ala/Lys382Ala (peptide)
peptide: KARALKNKRRRS
Binder B1 has a Kd [1] of 178 µM.

B2: AEBP2_(379–390) peptide (RRK-rich motif, residues Lys379–Ser390) (peptide)
peptide: KRRKLKNKRRRS
With B2 the Kd (RBBP4 Glu231Ala) was 38.5 µM and the Kd [2] was 56.8 µM.
